Results: publication PMC7460833, “Exploring the Role of Phenylalanine Residues in Modulating the Flexibility and Topography of the Active Site in the Peroxygenase Variant PaDa-I” (International Journal of Molecular Sciences, 2020)
Residue numbers refer to the chain shown, from its start. Numbers in names are those of the source.

B1: PaDa-I (AaeUPO variant) (Cyclocybe aegerita; F119A/F354L/I291V/L110F/V100A/V118I) (protein)
chain: EPGLPPGPLENSSAKLVNDEAHPWKPLRPGDIRGPCPGLNTLASHGYLPRNGVATPAQIINAVQEGFNFDNQAAIAATYAAHLVDGNLITDLLSIGRKTRLTGPDPPPPASVGGLNEHGTFEGDASMTRGDAFFGNNHDFNETLFEQLVDYSNRFGGGKYNLTVAGELRFKRIQDSIATNPNFSFVDFRFFTAYGETTFPANLFVDGRRDDGQLDMDAARSFFQFSRMPDDFFRAPSPRSGTGVEVVVQAHPMQPGRNVGKINSYTVDPTSSDFSTPCLMYEKFVNITVKSLYPNPTVQLRKALNTNLDFLFQGVAAGCTQVFPYGRD
notes: laboratory-evolved secreted variant; plasmid pJRoC30-PaDa-I in Saccharomyces cerevisiae BJ5465, purified; only F311L given; recalled mature changes V57A/L67F/V75I/I248V/F311L (plus signal peptide F12Y/A14V/R15G/A21D); heme-thiolate, N-glycosylated
B2: PaDa-I (AaeUPO variant) (Cyclocybe aegerita; F119A/F234A/F354L/I291V/L110F/V100A/V118I) (protein)
chain: B1 chain with F191A
notes: as for B1
B3: PaDa-I (AaeUPO variant) (Cyclocybe aegerita; F119L/F354L/I291V/L110F/V100A/V118I) (protein)
chain: B1 chain with A76L
notes: as for B1
B4: PaDa-I (AaeUPO variant) (Cyclocybe aegerita; F234A/F354L/I291V/L110F/V100A/V118I) (protein)
chain: B1 chain with A76F, F191A
notes: as for B1
B5: PaDa-I (AaeUPO variant) (Cyclocybe aegerita; F119L/F234A/F354L/I291V/L110F/V100A/V118I) (protein)
chain: B1 chain with A76L, F191A
notes: as for B1

The proteins below were run on O=[N+]([O-])c1ccc2c(c1)OCO2 (assay: purified protein). Settings: H2O2 1 mM, potassium phosphate 50 mM pH 7.0, 20% v/v acetonitrile.
Assay type: biochemical, Cyclocybe aegerita

Protein	Km [µM]	kcat [s⁻¹]	kcat/Km [M⁻¹ s⁻¹]
B1	1386 ± 176	356 ± 30	257000
B2	1389 ± 119	258 ± 15	186000
B3	890 ± 81	454 ± 22	510000
B4	525 ± 73	279 ± 18	531000
B5	1552 ± 155	332 ± 33	214000
